Results: PMC11445563

How the values were obtained:
[1] = biological target: Flag-tagged human melanocortin-5 receptor (MC5R) on HEK293T cells (human) (UniProt P33032)
[2] = biological target: Flag-tagged human melanocortin-3 receptor (MC3R) on HEK293T cells (human) (UniProt P41968)
UniProt P41968, sequence (P41968 whole entry): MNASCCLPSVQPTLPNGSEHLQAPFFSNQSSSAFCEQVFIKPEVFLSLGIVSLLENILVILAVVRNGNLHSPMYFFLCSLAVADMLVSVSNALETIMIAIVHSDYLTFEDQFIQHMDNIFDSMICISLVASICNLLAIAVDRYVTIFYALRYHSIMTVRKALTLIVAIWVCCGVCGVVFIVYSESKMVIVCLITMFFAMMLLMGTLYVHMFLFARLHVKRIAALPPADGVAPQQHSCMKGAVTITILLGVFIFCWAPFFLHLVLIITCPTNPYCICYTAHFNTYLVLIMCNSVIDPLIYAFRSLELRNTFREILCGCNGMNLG

UniProt P33032, sequence (P33032 whole entry): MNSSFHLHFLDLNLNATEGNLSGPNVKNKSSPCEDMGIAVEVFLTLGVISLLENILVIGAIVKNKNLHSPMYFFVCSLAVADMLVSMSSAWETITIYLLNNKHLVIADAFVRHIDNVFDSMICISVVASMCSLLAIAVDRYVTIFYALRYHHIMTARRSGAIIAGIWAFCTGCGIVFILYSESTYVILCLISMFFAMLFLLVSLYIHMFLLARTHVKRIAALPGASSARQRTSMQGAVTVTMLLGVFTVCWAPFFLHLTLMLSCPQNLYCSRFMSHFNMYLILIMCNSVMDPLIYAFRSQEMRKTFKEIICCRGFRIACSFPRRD

Work on setmelanotide (peptide) yielded a cAMP signaling (GloSensor), HEK293 cells with human MC5R, EC50 [1] of 451 nM and a cAMP signaling (GloSensor), HEK293 cells with human MC3R, EC50 [2] of 2.1 nM.
